Assay results published in patent publication US20180155413A1 (AstraZeneca / MedImmune, published 2018).
Positions count from the first letter of the chain named.

B1: FBC39 IgG (antibody, V domains shown)
VH: EVQLVVSGGGLVKPGGSLRLSCAASGLSFLNAWMSWVRQAPGKGLEWVGRIKSNTDGGTTDYAAPVKGRFSISRDDSKNMLFLHMSSLRTEDTAVYYCATDGPYSDDFRSGYAARYRYFGMDVWGQGTTVTVSS
VL: DIQMTQSPSSVSASVGDRVTITCRASQDISTWLAWYQQKPGKAPKLLIYAASSLQSGVPSRFSGSGSGTDFTLTISSLQPEDFATYFCQQANSFPPTFGQGTKLEIK
B2: FY1 IgG (antibody, V domains shown)
VH: QVQLQESGPGLVKPSQTLSLTCAISGDSVSSNNAVWNWIRQSPSRGLEWLGRTYYRSKWYNDYAESVKSRITVNPDTSKNQFSLHLKSVTPEDTAVFYCVRSGHITVFGVNVDAFDMWGQGTMVTVSS
VL: DIQMTQSPSSLSASVGDRVTITCRTSQSLSSYLHWYQQKPGKAPKLLIYAASSLQSGVPSRFSGSGSGTDFTLTISSLQPEDFATYYCQQSRTFGQGTKVEIK
B3: GL20/39FTL BiS4 100/44 (bispecific antibody)
light: B2 VL with L33T, L54R, Q55G
heavy (part 1 of 2): B2 VH with E6Q, N32Y, K58G, V73I, H85Q, K87N, F97Y, V100A
heavy (part 2 of 2): DIQMTQSPSSVSASVGDRVTITCRASQDISTWLAWYQQKPGKAPKLLIYAASSLQSGVPSRFSGSGSGTDFTLTISSLQPEDFATYYCQQANSFPPTFGCGTKLEIKGGGGSGGGGSGGGGSGGGGSEVQLVESGGGLVKPGGSLRLSCAASGFTFLNAWMSWVRQAPGKCLEWVGRIKSNTDGGTTDYAAPVKGRFTISRDDSKNTLYLQMSSLKTEDTAVYYCTTDGPYSDDFRSGYAARYRYFGMDVWGQGTTVTVSS
B4: GL20 IgG (antibody, V domains shown)
VH: B2 VH with E6Q, N32Y, K58G, V73I, H85Q, K87N, F97Y, V100A
VL: B2 VL with L33T, L54R, Q55G
B5: FY1/94 BiS2 100/44 (bispecific antibody)
light: DIQMTQSPSSLSASVGDRVTITCRTSQSLSSYLHWYQQKPGKAPKLLIYAASSLQSGVPSRFSGSGSGTDFTLTISSLQPEDFATYYCQQSRTFGQGTKVEIKRTVAAPSVFIFPPSDEQLKSGTASVVCLLNNFYPREAKVQWKVDNALQSGNSQESVTEQDSKDSTYSLSSTLTLSKADYEKHKVYACEVTHQGLSSPVTKSFNRGEC
heavy: not shown
B6: FY1/39 BiS3 100/44 (bispecific antibody)
light: B5 light
heavy: not shown
B7: FY1/39 BiS4 100/44 (bispecific antibody)
light: B5 light
heavy: not shown
B8: FY1/39 BiS2 100/44 (bispecific antibody)
light: B5 light
heavy: not shown
B9: FY1/94 BiS4 100/44 (bispecific antibody)
light: B5 light
heavy: not shown
B10: GL20/39FTL BiS4 43/105 (bispecific antibody)
light: B5 light with L33T, L54R, Q55G
heavy: not shown
B11: GL20/39 BiS4 100/44 (bispecific antibody)
light: B5 light with L33T, L54R, Q55G
heavy: not shown
B12: FY1/39 BiS4 43/105 (bispecific antibody)
light: B5 light
heavy: not shown
B13: FY1/39 BiS1 100/44 (bispecific antibody)
light: DIQMTQSPSSVSASVGDRVTITCRASQDISTWLAWYQQKPGKAPKLLIYAASSLQSGVPSRFSGSGSGTDFTLTISSLQPEDFATYFCQQANSFPPTFGCGTKLEIKGGGGSGGGGSGGGGSGGGGSEVQLVVSGGGLVKPGGSLRLSCAASGLSFLNAWMSWVRQAPGKCLEWVGRIKSNTDGGTTDYAAPVKGRFSISRDDSKNMLFLHMSSLRTEDTAVYYCATDGPYSDDFRSGYAARYRYFGMDVWGQGTTVTVSSGGGGSGGGGSDIQMTQSPSSLSASVGDRVTITCRTSQSLSSYLHWYQQKPGKAPKLLIYAASSLQSGVPSRFSGSGSGTDFTLTISSLQPEDFATYYCQQSRTFGQGTKVEIKRTVAAPSVFIFPPSDEQLKSGTASVVCLLNNFYPREAKVQWKVDNALQSGNSQESVTEQDSKDSTYSLSSTLTLSKADYEKHKVYACEVTHQGLSSPVTKSFNRGEC
heavy: not shown
B14: FBD94 IgG (antibody, V domains shown)
VH: EVQLVESGGGLVQPGRSLRLSCAVSGFIFEDYAINWVRQAPGKGLEWVSIISWDSGRIGYADSVRGRFTISRDNAKNSSFLQMNSLRPEDTAVYYCVKDMLAYYYDGSGIRYNLYGMDVWGQGTTVTVSS
VL: EIVLTQSPATLSLSPGERATLSCRASRSITTFLAWYQQKPGQAPRLLIYDASNRATGVPARFSGSGSGTDFTLTINSLEPDDFAIYYCQQRDHWPPIFGQGTRLEIK

The binders below were run against recombinant HA derived from A/California/07/2009 H1N1 (influenza A virus, UniProt P26140 18-529) (assay: ELISA, rHA coated on plate).

Row | Binder | binding result | EC50
1 | B1 | no binding | –
2 | B2 | – | 2.15 nM
3 | B3 | – | 0.99 nM
4 | B4 | – | 1.99 nM
5 | B5 | – | 6.83 nM
6 | B6 | – | 1.52 nM
7 | B7 | – | 1.19 nM
8 | B8 | – | 3.97 nM
9 | B9 | – | 1.53 nM
10 | B10 | – | 0.86 nM
11 | B11 | – | 0.95 nM
12 | B12 | – | 0.78 nM
13 | B13 | – | 6.85 nM
14 | B14 | no binding | –
